This is an account of results in publication PMC2918618, “Characterization of the TnsD-attTn7 complex that promotes site-specific insertion of Tn7” (Mobile DNA, 2010).

Series [1] deals with T1, TnsD wt (Escherichia coli (transposon Tn7)) (UniProt P13991).
T1 sequence: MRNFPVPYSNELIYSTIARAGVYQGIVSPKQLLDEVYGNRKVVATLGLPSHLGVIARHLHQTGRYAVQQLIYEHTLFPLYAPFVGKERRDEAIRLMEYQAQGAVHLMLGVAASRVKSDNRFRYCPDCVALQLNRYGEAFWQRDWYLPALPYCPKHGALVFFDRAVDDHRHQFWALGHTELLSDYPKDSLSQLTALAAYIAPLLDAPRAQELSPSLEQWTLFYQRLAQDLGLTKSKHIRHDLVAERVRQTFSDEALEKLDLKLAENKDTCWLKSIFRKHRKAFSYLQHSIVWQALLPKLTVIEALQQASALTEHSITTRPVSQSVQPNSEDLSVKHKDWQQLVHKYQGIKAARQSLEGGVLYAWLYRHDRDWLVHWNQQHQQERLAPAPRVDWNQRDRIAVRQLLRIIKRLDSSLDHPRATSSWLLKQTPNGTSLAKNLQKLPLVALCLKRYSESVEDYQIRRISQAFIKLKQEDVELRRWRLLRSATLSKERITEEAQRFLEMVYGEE
The series is described as follows: EMSA. The note with it: Gel-shift buffer not given (as described in ref. 6); TnsD stored in 500 mM KCl, 50 mM Tris-HCl pH 8.0, 1 mM EDTA, 2 mM DTT, 25% glycerol. (In EMSA bound probe runs differently from free probe, usually more slowly.)

Series [2] has as its target RB. The series is described as follows: two-hybrid; yeast two-hybrid (ProQuest Two-Hybrid System); TnsD in pDBLeu (Gal4-DB), TnsC in pPC86 (Gal4-AD); read-out β-galactosidase activity; empty vectors gave 0.075.
Series [3] deals with Jun. The description is as above.
Jun, sequence (P05627 whole entry): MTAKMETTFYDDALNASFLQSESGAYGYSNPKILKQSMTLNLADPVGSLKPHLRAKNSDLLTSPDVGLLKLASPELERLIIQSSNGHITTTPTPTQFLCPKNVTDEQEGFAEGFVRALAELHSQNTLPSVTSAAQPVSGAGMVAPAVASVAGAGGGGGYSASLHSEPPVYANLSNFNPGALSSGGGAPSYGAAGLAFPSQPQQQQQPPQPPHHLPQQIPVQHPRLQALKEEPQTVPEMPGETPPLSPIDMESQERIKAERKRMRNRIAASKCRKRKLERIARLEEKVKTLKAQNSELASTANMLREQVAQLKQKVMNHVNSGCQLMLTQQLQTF
Series [4] addresses T2, TnsD (1 to 507) wt (E. coli (transposon Tn7), UniProt P13991 1-508).
T2 construct: TnsD, target site-selector protein of the bacterial transposon Tn7, residues 1 to 507 (full-length TnsD is 507 aa); TnsD was cloned into pDBLeu (ProQuest Two-Hybrid System); also called full-length TnsD; source: yeast two-hybrid fusion
T2 sequence (looked up): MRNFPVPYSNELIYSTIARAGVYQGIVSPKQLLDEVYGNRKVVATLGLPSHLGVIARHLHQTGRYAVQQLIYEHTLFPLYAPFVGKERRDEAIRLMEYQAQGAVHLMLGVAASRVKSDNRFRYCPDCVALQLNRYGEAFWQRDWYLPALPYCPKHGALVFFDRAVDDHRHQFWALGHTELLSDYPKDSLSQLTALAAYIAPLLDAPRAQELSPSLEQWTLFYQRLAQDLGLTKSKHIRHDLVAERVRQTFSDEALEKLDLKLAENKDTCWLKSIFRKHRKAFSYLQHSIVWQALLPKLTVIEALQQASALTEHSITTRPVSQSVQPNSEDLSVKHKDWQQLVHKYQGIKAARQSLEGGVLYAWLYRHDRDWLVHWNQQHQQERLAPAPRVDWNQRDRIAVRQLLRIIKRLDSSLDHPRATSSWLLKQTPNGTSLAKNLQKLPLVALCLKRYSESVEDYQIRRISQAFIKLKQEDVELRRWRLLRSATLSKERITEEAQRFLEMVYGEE
The description is as above. The note with it: partners not purified.

Series [5] deals with T3, TnsD (1 to 309) (E. coli (transposon Tn7), UniProt P13991 1-309).
T3 construct: TnsD of transposon Tn7, residues 1 to 309; source: yeast two-hybrid fusion
T3 sequence (looked up): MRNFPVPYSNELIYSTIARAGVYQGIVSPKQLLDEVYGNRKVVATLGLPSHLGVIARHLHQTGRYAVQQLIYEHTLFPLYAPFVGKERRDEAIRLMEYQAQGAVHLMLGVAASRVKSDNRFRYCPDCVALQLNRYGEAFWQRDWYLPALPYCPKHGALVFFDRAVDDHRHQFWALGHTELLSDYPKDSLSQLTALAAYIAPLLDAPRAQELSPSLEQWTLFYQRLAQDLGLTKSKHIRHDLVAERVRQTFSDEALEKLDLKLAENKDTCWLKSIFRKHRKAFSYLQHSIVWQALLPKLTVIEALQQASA
Described as above. The note with it: partners not purified.

Series [6] has as its target T4, TnsD (1 to 375) (E. coli (transposon Tn7), UniProt P13991 1-375).
T4 construct: TnsD of transposon Tn7, residues 1 to 375; source: yeast two-hybrid fusion
T4 sequence (looked up): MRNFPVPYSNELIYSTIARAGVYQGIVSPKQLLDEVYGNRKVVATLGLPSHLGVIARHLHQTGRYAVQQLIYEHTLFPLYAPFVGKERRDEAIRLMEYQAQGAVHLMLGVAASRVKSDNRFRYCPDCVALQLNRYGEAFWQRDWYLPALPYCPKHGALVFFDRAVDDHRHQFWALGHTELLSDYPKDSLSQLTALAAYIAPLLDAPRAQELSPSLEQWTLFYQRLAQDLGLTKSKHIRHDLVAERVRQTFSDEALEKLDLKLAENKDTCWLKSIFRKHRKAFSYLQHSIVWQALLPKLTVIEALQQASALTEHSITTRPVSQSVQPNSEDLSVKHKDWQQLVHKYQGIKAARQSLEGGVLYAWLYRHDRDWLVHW
The series is described as above. As to conditions: partners not purified.

The target of series [7] is T5, TnsD (1 to 350) (E. coli (transposon Tn7), UniProt P13991 1-350).
T5 construct: TnsD of transposon Tn7, residues 1 to 350; source: yeast two-hybrid fusion
T5 sequence (looked up): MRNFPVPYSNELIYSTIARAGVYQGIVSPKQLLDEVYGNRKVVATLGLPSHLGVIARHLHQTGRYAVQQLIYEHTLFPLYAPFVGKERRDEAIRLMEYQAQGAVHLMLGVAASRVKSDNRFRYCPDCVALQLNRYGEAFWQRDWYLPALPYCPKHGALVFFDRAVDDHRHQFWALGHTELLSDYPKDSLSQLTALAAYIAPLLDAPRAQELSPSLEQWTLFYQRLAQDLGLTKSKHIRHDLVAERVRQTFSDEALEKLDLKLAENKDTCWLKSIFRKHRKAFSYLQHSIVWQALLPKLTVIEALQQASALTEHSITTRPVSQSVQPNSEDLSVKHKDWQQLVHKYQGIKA
Described as above. The note with it: partners not purified.

Series [8] has as its target T6, TnsD (1 to 399) (E. coli (transposon Tn7), UniProt P13991 1-399).
T6 construct: TnsD of transposon Tn7, residues 1 to 399; source: yeast two-hybrid fusion
T6 sequence (looked up): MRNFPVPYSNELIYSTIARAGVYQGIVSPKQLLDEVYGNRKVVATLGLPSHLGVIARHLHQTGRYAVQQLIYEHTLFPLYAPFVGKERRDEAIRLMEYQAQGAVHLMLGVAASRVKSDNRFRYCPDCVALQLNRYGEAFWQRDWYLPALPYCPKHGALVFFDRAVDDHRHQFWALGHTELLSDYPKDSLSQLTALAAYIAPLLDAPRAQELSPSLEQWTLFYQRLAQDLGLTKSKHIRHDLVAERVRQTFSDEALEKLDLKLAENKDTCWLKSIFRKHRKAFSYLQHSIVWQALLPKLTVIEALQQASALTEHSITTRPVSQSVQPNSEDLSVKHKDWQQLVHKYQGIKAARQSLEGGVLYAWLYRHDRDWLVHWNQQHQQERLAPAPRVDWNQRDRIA
Described as above. As to conditions: partners not purified.

RB, sequence (P06400 2-928): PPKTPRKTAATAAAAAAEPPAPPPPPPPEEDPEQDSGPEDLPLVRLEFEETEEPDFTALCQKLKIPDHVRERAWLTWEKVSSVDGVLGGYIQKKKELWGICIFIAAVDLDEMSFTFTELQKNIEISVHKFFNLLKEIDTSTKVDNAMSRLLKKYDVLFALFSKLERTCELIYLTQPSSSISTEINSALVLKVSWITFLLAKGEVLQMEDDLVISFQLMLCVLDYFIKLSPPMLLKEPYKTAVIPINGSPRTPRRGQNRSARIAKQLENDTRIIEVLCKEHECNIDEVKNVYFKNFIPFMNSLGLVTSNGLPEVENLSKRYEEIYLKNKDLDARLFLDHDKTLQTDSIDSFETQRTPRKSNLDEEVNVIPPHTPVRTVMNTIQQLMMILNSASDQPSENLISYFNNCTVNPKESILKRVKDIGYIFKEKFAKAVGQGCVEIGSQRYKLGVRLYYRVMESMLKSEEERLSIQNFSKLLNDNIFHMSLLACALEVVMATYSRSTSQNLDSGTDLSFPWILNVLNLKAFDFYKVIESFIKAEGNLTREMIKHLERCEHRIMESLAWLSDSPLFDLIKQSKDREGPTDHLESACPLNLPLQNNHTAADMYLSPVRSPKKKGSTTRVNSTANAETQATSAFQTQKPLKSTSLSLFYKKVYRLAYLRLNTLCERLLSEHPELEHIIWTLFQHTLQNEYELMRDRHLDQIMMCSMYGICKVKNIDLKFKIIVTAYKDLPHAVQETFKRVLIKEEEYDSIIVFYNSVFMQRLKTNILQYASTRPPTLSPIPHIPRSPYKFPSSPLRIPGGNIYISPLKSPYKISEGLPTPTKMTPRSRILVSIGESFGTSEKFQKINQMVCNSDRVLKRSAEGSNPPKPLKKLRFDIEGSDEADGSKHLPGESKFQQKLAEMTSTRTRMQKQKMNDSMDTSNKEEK

As for “CCGCGTAACCGGGCAAAATCGGTTACGGTTGAGTAA (double strand) [attTn7 +48 mutant]”, the binding signal (relative to wt site) in series [1] came to 0.5.

Regarding “CCGCGTACCCTGGCAAAATCGGTTACGGTTGAGTAA (double strand) [attTn7 +51 mutant]”, the binding signal (relative to wt site) in series [1] was under 0.2.

As to E2F1 (natural protein), the β-galactosidase activity in series [2] was 1.

In the case of “CCGCGTAACCTGGCAAAATCGGTTACGGGTGAGTAA (double strand) [attTn7 +30 mutant]”, the binding signal (relative to wt site) in series [1] turned out to be 0.5.

On to “CCGCGTAACCTGGAAAAATCGGTTACGGTTGAGTAA (double strand) [attTn7 +45 mutant]”, for which the binding signal (relative to wt site) in series [1] is under 0.2.

On to “CCGCGTAACCTGGCAACATCGGTTACGGTTGAGTAA (double strand) [attTn7 +42 mutant]”, for which, in series [1], the binding signal (relative to wt site) is under 0.2.

Consider “CCGCTTAACCTGGCAAAATCGGTTACGGTTGAGTAA (double strand) [attTn7 +54 mutant]”, for which the binding signal (relative to wt site) in series [1] is under 0.2.

Take Fos (natural protein): the β-galactosidase activity in series [3] was determined as 5.

For “CCGCGTCACCTGGCAAAATCGGTTACGGTTGAGTAA (double strand) [attTn7 +52 mutant]”, in series [1], the binding signal (relative to wt site) worked out at 0.5.

As to “CCGCGTAACCTGGCAAAATCGTTTACGGTTGAGTAA (double strand) [attTn7 +37 mutant]”, the binding signal (relative to wt site) in series [1] came out at 0.5.

Take “CCGCGTAACCTGGCACAATCGGTTACGGTTGAGTAA (double strand) [attTn7 +43 mutant]”: the binding signal (relative to wt site) in series [1] was under 0.2.

In the case of “CCGCGTAACCTGGCAAAATCGGTTAAGGTTGAGTAA (double strand) [attTn7 +33 mutant]”, the binding signal (relative to wt site) in series [1] is under 0.2.

With “CCGCGTAACCTGGCAAAATCGGTTACGTTTGAGTAA (double strand) [attTn7 +31 mutant]”, the binding signal (relative to wt site) in series [1] was under 0.2.

B1: TnsC (1 to 555) wt (natural protein, E. coli (transposon Tn7), UniProt P05846 1-555, looked up)
chain: MSATRIQAVYRDTGVEAYRDNPFIEALPPLQESVNSAASLKSSLQLTSSDLQKSRVIRAHTICRIPDDYFQPLGTHLLLSERISVMIRGGYVGRNPKTGDLQKHLQNGYERVQTGELETFRFEEARSTAQSLLLIGCSGSGKTTSLHRILATYPQVIYHRELNVEQVVYLKIDCSHNGSLKEICLNFFRALDRALGSNYERRYGLKRHGIETMLALMSQIANAHALGLLVIDEIQHLSRSRSGGSQEMLNFFVTMVNIIGVPVMLIGTPKAREIFEADLRSARRGAGFGAIFWDPIQQTQRGKPNQEWIAFTDNLWQLQLLQRKDALLSDEVRDVWYELSQGVMDIVVKLFVLAQLRALALGNERITAGLLRQVYQDELKPVHPMLEALRSGIPERIARYSDLVVPEIDKRLIQLQLDIAAIQEQTPEEKALQELDTEDQRHLYLMLKEDYDSSLLIPTIKKAFSQNPTMTRQKLLPLVLQWLMEGETVVSELEKPSKSKKVSAIKVVKPSDWDSLPDTDLRYIYSQRQPEKTMHERLKGKGVIVDMASLFKQAG
notes: TnsC, transposition protein of the bacterial transposon Tn7, residues 1 to 555 (full-length is 555 aa); TnsC was cloned into pPC86 (ProQuest Two-Hybrid System); also called full-length TnsC; source: yeast two-hybrid fusion
As to B1, the β-galactosidase activity in series [4] is 1; in series [5], 4.5; in series [6], 5; in series [7], 4.5; in series [8], 4.5.

B2: TnsC (1 to 293) (domain or fragment, E. coli (transposon Tn7), UniProt P05846 1-293, looked up)
chain: MSATRIQAVYRDTGVEAYRDNPFIEALPPLQESVNSAASLKSSLQLTSSDLQKSRVIRAHTICRIPDDYFQPLGTHLLLSERISVMIRGGYVGRNPKTGDLQKHLQNGYERVQTGELETFRFEEARSTAQSLLLIGCSGSGKTTSLHRILATYPQVIYHRELNVEQVVYLKIDCSHNGSLKEICLNFFRALDRALGSNYERRYGLKRHGIETMLALMSQIANAHALGLLVIDEIQHLSRSRSGGSQEMLNFFVTMVNIIGVPVMLIGTPKAREIFEADLRSARRGAGFGAIFW
notes: TnsC of transposon Tn7, residues 1 to 293; source: yeast two-hybrid fusion
As for B2, the β-galactosidase activity in series [4] was 0.2.

B3: TnsC (1 to 480) (domain or fragment, E. coli (transposon Tn7), UniProt P05846 1-480, looked up)
chain: MSATRIQAVYRDTGVEAYRDNPFIEALPPLQESVNSAASLKSSLQLTSSDLQKSRVIRAHTICRIPDDYFQPLGTHLLLSERISVMIRGGYVGRNPKTGDLQKHLQNGYERVQTGELETFRFEEARSTAQSLLLIGCSGSGKTTSLHRILATYPQVIYHRELNVEQVVYLKIDCSHNGSLKEICLNFFRALDRALGSNYERRYGLKRHGIETMLALMSQIANAHALGLLVIDEIQHLSRSRSGGSQEMLNFFVTMVNIIGVPVMLIGTPKAREIFEADLRSARRGAGFGAIFWDPIQQTQRGKPNQEWIAFTDNLWQLQLLQRKDALLSDEVRDVWYELSQGVMDIVVKLFVLAQLRALALGNERITAGLLRQVYQDELKPVHPMLEALRSGIPERIARYSDLVVPEIDKRLIQLQLDIAAIQEQTPEEKALQELDTEDQRHLYLMLKEDYDSSLLIPTIKKAFSQNPTMTRQKLLPLVL
notes: TnsC of transposon Tn7, residues 1 to 480; also called TnsC with deletion of 75 amino acids from the C terminus; source: yeast two-hybrid fusion
B3: the β-galactosidase activity in series [4] worked out at 1.

B4: TnsC (1 to 384) (domain or fragment, E. coli (transposon Tn7), UniProt P05846 1-384, looked up)
chain: MSATRIQAVYRDTGVEAYRDNPFIEALPPLQESVNSAASLKSSLQLTSSDLQKSRVIRAHTICRIPDDYFQPLGTHLLLSERISVMIRGGYVGRNPKTGDLQKHLQNGYERVQTGELETFRFEEARSTAQSLLLIGCSGSGKTTSLHRILATYPQVIYHRELNVEQVVYLKIDCSHNGSLKEICLNFFRALDRALGSNYERRYGLKRHGIETMLALMSQIANAHALGLLVIDEIQHLSRSRSGGSQEMLNFFVTMVNIIGVPVMLIGTPKAREIFEADLRSARRGAGFGAIFWDPIQQTQRGKPNQEWIAFTDNLWQLQLLQRKDALLSDEVRDVWYELSQGVMDIVVKLFVLAQLRALALGNERITAGLLRQVYQDELKPVHP
notes: TnsC of transposon Tn7, residues 1 to 384; also called TnsC with deletion of 171 amino acids from the C terminus; source: yeast two-hybrid fusion
For B4, the β-galactosidase activity in series [4] is 1.
